Test results reported in PMC8478157 (Nature, 2021).

Biological target: the molecule itself
Assay: native gel or EMSA

B1: recombinant eGFP–GBPL3 (natural protein, Arabidopsis thaliana, UniProt F4KG14 1-1082, looked up)
chain: MRSFFGRGGKDSPADSASPSPRSYPSTSPASSSAVTGPPRPIRLVYCDEKGKFRMDPEAVATLQLVKEPIGVVSVCGRARQGKSFILNQLLGRSNGFQVASTHKPCTKGLWLWSSPIKRTALDGTEYNLLLLDSEGIDAYDQTGTYSTQIFSLAVLLSSMFVYNQMGGIDEASLDRLSLVTQMTKHIRVKASGGTSSRSELGQFSPIFVWLLRDFYLDLVEDNRKISPRDYLEIALRPVQGSGGDIGAKNEIRDSIRALFPDRECFTLVRPLNNEKDLQRLDQISLEKLRPEFGAGLDAFTKFVFEKTRPKQLGGTVMTGPILVGITQSYLDALNNGAVPTITSSWQSVEETECRRAYDSGVEAYMAAFDQSKAPEEGALREEHEEAVRKALAIFNSNAVGNGSARKKFEDLLHKDLKKKFEDYKKNAFMEADLRCTSTIQRMEKQLRAACHASNANMDNVVKVLEARLAEYEASCHGPGKWQKLSVFLQQSLEGPIYDLTKRLIDSIAIEKNSLAMKFRSVEDAMKHLKQQLDDSERYKLEYQKRYDESNNDKKKLEDIYRERITKLQGENSSLNERCSTLVKTVESKKEEIKEWIRNYDQIVLKQKAVQEQLSSEMEVLRTRSTTSEARVAAAREQAKSAAEETKEWKRKYDYAVGEARSALQKAASVQERSGKETQLREDALREEFSITLANKDEEITEKATKLEKAEQSLTVLRSDLKVAESKLESFEVELASLRLTLSEMTDKLDSANKKALAYEKEANKLEQEKIRMEQKYRSEFQRFDEVKERCKAAEIEAKRATELADKARTDAVTSQKEKSESQRLAMERLAQIERAERQVENLERQKTDLEDELDRLRVSEMEAVSKVTILEARVEEREKEIGSLIKETNAQRAHNVKSLEKLLDEERKAHIAANRRAEALSLELQAAQAHVDNLQQELAQARLKETALDNKIRAASSSHGKRSRFEDVVDMDIGEGSDRILRTNKRARSTRGDDHGPTDEGDEDFQSHQDNGEEEEEEDYRKLTVQNLKHELTKYDCGHLLLNRGHQNKKEILALYEAHVLPKKALAREEERKKQREVTSS
binding result: binds
